Measured values taken from patent publication US20220089784A1 (University of California, published 2022).

T1: BoNT/C1 holotoxin (Clostridium botulinum, UniProt P18640 2-1291)
T1 sequence: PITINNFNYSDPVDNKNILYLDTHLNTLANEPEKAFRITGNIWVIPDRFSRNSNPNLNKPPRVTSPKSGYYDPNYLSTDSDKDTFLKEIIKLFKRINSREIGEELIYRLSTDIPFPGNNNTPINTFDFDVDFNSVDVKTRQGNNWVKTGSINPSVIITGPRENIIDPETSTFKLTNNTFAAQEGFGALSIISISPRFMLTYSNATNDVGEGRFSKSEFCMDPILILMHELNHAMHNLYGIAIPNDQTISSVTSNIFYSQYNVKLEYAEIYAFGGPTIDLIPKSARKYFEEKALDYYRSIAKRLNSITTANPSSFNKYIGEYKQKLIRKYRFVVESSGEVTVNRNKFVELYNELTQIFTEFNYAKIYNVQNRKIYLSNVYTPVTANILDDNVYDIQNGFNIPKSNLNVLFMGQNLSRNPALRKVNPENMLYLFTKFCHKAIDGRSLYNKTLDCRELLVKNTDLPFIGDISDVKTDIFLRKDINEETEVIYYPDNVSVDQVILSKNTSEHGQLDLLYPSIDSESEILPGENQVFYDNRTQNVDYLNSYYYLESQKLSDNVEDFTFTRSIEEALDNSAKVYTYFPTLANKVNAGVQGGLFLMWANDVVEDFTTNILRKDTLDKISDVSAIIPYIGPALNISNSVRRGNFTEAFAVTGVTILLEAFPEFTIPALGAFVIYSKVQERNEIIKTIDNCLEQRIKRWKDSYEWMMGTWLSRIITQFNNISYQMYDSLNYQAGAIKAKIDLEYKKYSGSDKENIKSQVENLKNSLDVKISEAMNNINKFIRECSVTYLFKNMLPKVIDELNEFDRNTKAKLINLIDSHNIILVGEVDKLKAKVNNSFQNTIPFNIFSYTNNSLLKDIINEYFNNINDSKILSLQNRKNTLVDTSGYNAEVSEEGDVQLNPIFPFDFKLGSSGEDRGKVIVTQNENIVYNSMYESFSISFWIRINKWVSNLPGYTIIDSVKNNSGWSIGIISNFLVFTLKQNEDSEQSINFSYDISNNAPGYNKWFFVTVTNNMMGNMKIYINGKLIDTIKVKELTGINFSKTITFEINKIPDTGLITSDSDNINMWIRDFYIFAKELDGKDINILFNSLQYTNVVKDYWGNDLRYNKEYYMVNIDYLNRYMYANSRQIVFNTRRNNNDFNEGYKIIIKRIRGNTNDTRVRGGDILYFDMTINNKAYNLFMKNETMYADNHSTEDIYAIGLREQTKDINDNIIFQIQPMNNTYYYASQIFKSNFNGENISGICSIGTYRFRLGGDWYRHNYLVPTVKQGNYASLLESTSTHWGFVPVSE

T2: BoNT/D (Clostridium botulinum, UniProt P19321 2-1276)
T2 sequence: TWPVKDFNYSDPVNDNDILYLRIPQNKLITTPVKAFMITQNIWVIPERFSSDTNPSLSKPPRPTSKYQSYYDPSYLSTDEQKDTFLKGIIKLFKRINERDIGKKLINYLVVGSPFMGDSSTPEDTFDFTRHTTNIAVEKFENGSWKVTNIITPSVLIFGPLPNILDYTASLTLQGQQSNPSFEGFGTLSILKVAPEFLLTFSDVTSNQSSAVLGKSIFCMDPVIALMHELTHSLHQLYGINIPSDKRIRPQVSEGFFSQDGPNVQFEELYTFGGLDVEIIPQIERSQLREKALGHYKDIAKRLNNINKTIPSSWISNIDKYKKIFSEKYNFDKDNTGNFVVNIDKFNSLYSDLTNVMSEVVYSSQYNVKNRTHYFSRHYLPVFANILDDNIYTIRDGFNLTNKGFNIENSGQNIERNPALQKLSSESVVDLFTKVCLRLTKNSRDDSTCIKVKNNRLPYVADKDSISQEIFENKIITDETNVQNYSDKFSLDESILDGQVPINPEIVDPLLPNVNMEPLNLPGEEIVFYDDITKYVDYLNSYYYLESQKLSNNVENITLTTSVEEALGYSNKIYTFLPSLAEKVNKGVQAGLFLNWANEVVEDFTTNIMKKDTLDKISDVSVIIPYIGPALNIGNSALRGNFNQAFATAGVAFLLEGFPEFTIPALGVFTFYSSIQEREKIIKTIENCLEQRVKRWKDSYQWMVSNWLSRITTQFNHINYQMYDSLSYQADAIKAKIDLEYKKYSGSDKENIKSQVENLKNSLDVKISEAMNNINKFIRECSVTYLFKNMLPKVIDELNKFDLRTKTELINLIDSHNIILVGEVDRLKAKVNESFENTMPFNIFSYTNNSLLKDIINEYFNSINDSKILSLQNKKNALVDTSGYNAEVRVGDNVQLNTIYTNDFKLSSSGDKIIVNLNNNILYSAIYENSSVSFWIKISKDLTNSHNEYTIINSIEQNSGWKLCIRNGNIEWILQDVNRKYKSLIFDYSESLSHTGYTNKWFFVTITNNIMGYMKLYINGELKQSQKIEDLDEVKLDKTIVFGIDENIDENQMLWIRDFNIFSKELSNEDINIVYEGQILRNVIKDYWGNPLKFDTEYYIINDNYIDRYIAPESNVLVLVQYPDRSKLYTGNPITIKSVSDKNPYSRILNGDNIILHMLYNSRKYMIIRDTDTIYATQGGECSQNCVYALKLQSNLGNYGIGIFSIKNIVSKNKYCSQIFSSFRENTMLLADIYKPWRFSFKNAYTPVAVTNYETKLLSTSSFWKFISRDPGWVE

B1: 8DC12 scFv (scFv, V domains shown)
VH: QVQLVQSGGGVVQPGRSLRLSCAASGFTFSSYGMHWVRQAPGKGLEWVAAISYDGSNKYYADSVKGRFTISRDNSKNTLYLQMNSLRAEDTAVYYCAKGEHFVVVTAFATWGQGTLVTVSS
VL: DIVMTQSPSFLSASIGDRVTITCRASQSISNWLAWYQQKPGKAPKVLVYKASSLENGVPSRFSGSGSGTDFTLTITSLQPDDFATYYCQQYNAYPLTFGGGTKVEIK
notes: human
B2: 8DC14 scFv (scFv, V domains shown)
VH: QVQLVQSGGGVVQPGRSLRLSCVASGFTFSSYTMHWVRQAPGEGLEWVAGISNDGRNQYYSDSVKGRATISRDNSKDTLYLQMHSLRAEDTAVYYCAKANYHFILATTFHSWGQGTLVTVSS
VL: DIVMTQSPSSVSASVGDRVTITCRASQGISSWLAWYQQKPGKAPKLLIYAASSLQSGVPSRFSGSGSGTDFTLTISRLQPEDVATYYCQRYNSLPFTFGGGTKLEIK
notes: human
B3: 8DC13 scFv (scFv, V domains shown)
VH: QVQLVQSGAEVKKPGASVKVSCKASGYTFTGYYIHWVRQAPGQGLEWMGRINPNSGGANYAHKFQGRVTMTRDTSSNTAYMEVSRLKSDDTAVYYCARRRAVANLDYHYYGMDVWGQGTTVTVSS
VL: DIVMTQSPSTLSASVGARVTITCRASQNINTYLNWYHQKPGKAPKLLIYAASSLQSGVPSRFSGSGSGTDFTLTISSLQPEDFATYYCQQSYSTPHTFGGGTKLEIK
notes: human
B4: 8DC11 scFv (scFv, V domains shown)
VH: QVQLVESGPGLVKPSQTLSLSCTVSGGSVNHYYWNWIRQPPGKGLEWIGYIFYNGRTNYNPSLKSRVTMSVDTSKNQISLKLRSVTAADTAVYYCAREGARGYCSSTSCHDAFDIWGRGTLVTVSS
VL: EIVLTQSPSFLSASVGDRVTITCRASQGIRNDLAWFQQKPGKAPKLLIYATSTLQSGVPSRFSGSGSGTDFTLTISSLQPEDFADYYCQQAASFPLTFGGGTKVDIK
notes: human
B5: 8DC8.6 scFv (scFv, V domains shown)
VH: QVQLQQSGPGLVKPSETLSLTCTVSGGSISSAGYSWSWIRQSPGKGLECLGYIYQTGSTFYNLSLKGRVTMSLDRSKNQISLRLTSVVAADTAVYYCARVVGVYPGWFDSWGQGTLVTVSS
VL: DIQMTQSPSSLSASVGDRVTITCRASQGVSTDLAWYQQKPGRAPKLLIYRASSLQSGVPSRFSGSGSGTDFTLTISSLQPDDLATYYCQHYESYSPWTFGQGTQGEIK
notes: human
B6: 8DC7 scFv (scFv, V domains shown)
VH: QVQLVQSGGRLVRPGGSLRLSCAASGFVFSNYGMHWVRQAPGKGLEWVAFLTHGGTNKYYSDSVKGRLTISRDNAKSTLFLEVNSLRVEDTAIYYCVKEGQLDSKYYFDSWGQGTLVTVSS
VL: EIVLTQSPSSLSASVGDRVTITCRASQSISSYLAWYQQKPGKAPELLIYAASTLQSGVPSRFSGSGSGTDFTLTISSVQPEDFATYYCQQSYSTPFTFGQGTKVEIK
notes: human
B7: 8DC10 scFv (scFv, V domains shown)
VH: QVQLVQSGAEAKKPGASVKLSCQASGYTFTGYAIHWVRQAPGQRLEWLGWINCVNGNTKYSPKLPGRVTITRDTSATTAYLELNSLTSEDTAVYYCARSMLVAARVYYYYGMDVWGQGTMVTVSS
VL: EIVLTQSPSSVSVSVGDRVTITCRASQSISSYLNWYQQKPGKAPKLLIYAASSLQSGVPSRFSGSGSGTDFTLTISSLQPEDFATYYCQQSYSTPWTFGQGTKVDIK
notes: human

These binders were tested against T1, BoNT/C1 holotoxin (assay: yeast scFv FACS).
B1: no binding (tested: ~1 µM).
B2: no binding (tested: ~1 µM).
B3: no binding (tested: ~1 µM).
B4: no binding (tested: ~1 µM).
B5: no binding (tested: ~1 µM).
B6: no binding (tested: ~1 µM).
B7: no binding (tested: ~1 µM).

Each binder was assayed against T2, BoNT/D (assay: yeast scFv FACS).
B1: binds.
B2: binds.
B3: binds.
B4: binds.
B5: binds.
B6: binds.
B7: binds.
